Data published in US7919262B2, “14-3-3 proteins for diagnosis of Parkinson's disease” (The UAB Research Foundation, priority 2007, dated 2011).

B1: 14-3-3ε: 14-3-3 polypeptide ε isoform, overexpressed from expression vector (protein, UniProt P62258 1-255, looked up)
14-3-3 protein epsilon: MDDREDLVYQAKLAEQAERYDEMVESMKKVAGMDVELTVEERNLLSVAYKNVIGARRASWRIISSIEQKEENKGGEDKLKMIREYRQMVETELKLICCDILDVLDKHLIPAANTGESKVFYYKMKGDYHRYLAEFATGNDRKEAAENSLVAYKAASDIAMTELPPTHPIRLGLALNFSVFYYEILNSPDRACRLAKAAFDDAIAELDTLSEESYKDSTLIMQLLRDNLTLWTSDMQGDGEEQNKEALQDVEDENQ
B2: 14-3-3θ: 14-3-3 polypeptide θ isoform, overexpressed from V5/His-tagged pcDNA3.1 vector (or as transgene in C. elegans) (protein, UniProt P27348 1-245, looked up)
14-3-3 protein theta: MEKTELIQKAKLAEQAERYDDMATCMKAVTEQGAELSNEERNLLSVAYKNVVGGRRSAWRVISSIEQKTDTSDKKLQLIKDYREKVESELRSICTTVLELLDKYLIANATNPESKVFYLKMKGDYFRYLAEVACGDDRKQTIDNSQGAYQEAFDISKKEMQPTHPIRLGLALNFSVFYYEILNNPELACTLAKTAFDEAIAELDTLNEDSYKDSTLIMQLLRDNLTLWTSDSAGEECDAAEGAEN
modifications: V5/His tag

System: H4 cells
Assay: α-syn aggregation assay (synT + synphilin co-transfection)
Assay type: cell-based
Conditions: isoform co-transfected with synT and synphilin; 24 hours after transfection; vs empty vector
Description: H4 cells were cotransfected with either empty vector or a 14-3-3 isoform along with synT and synphilin. 24 hours after transfection, cells were fixed and stained with a monoclonal antibody against α-syn. Cells that stained for α-syn were scored as positive or negative for α-syn aggregates, with the rater blind to experimental condition. Results reflect three independent experiments with four replicates per experiment. ***p<0.001 (Bonferroni's multiple comparison test).
To evaluate this hypothesis the effect of increased 14-3-3 polypeptide expression on α-syn aggregation was evaluated. In this experiment, the model of McLean et al., in which α-syn/green fluorescent protein (GFP) fusion protein (synT) forms visible aggregates in cells when expressed with synphilin (McLean, P J et al., Neuroscience, 104:901-12, 2001) was used. This system has been used to evaluate the effect of different polypeptides on α-syn aggregation (Kiucken, J., et al, J Biol Chem, 279:4625-31, 2004). Briefly, H4 cells were co-transfected with either empty vector or a vector containing nucleic acid encoding a 14-3-3 isoform, along with synT and synphilin. Twenty-four hours after transfection, cells were fixed and stained with a monoclonal antibody against α-syn. Results are shown in FIG. 3 and reflect three independent experiments with 4 replicates per experiment. […] These are the same 14-3-3 isoforms that were decreased in α-syn transgenic mice (see FIG. 2).
Primers against each of the human 14-3-3 isoforms were designed using Primer3. […] All cells stained for α-syn were scored as positive or negative for α-syn aggregates, with the rater blind to experimental condition. • α-syn toxicity assay H4 cells were transfected with α-syn and either empty vector control or a 14-3-3 isoform using Superfect transfection reagent (Qiagen). 24 hours after transfection, toxicity was measured by the amount of adenylate kinase released into the media using the ToxiLight™ kit (Cambrex). • Creation of stable cell lines Each 14-3-3 isoform was subcloned into the mammalian expression vector mcDNA3.1/V5-His (Invitrogen). […]

Molecule	decrease in the number of H4 cells displaying α-syn aggregates [%]
14-3-3γ: 14-3-3 polypeptide γ isoform, overexpressed from expression vector	40
B1	40
B2	40
